Values joined by “and” are separate entries in the source; they are usually repeats but may differ in a detail not shown here. Identical values can stand only once.

Here are results for 31 substances from patent publication US20100298539A1.

CD88-N-term peptide ABCF-1 (biotinylated C5aR peptide), sequence (P21730 7-28 limits assumed): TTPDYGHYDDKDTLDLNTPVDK

The first assay has as its target CD88-N-term peptide ABCF-1 (biotinylated C5aR peptide) (UniProt P21730). The assay is described as follows: C5aR peptide ELISA, lysate.
As for “CHIPS G52A (from UniProt A6QIG7 29-149) (other; other documents disagree on this pair)”, the pept-ELISA bindn (%) was 19% and 20%.

Take “CHIPS Y48A (from UniProt A6QIG7 29-149) (other; other documents disagree on this pair)”: the pept-ELISA bindn (%) is 86% and 70%.

On to “CHIPS Y108A (from UniProt A6QIG7 29-149) (other; other documents disagree on this pair)”, for which the pept-ELISA bindn (%) was found to be 1%.

For “CHIPS P79A (from UniProt A6QIG7 29-149) (other; other documents disagree on this pair)”, the pept-ELISA bindn (%) is 28% and 25%.

On to “CHIPS L90A (from UniProt A6QIG7 29-149) (other; other documents disagree on this pair)”, for which the pept-ELISA bindn (%) is 25% and 24%.

With “CHIPS L76A (from UniProt A6QIG7 29-149) (other; other documents disagree on this pair)”, the pept-ELISA bindn (%) is 1% and 2%.

In turn, “CHIPS S32A (from UniProt A6QIG7 29-149) (other; other documents disagree on this pair)” came in with a pept-ELISA bindn (%) of 15%.

As to “CHIPS L34A (from UniProt A6QIG7 29-149) (other; other documents disagree on this pair)”, the pept-ELISA bindn (%) was 13% and 12%.

In the case of “CHIPS T53A (from UniProt A6QIG7 29-149) (other; other documents disagree on this pair)”, the pept-ELISA bindn (%) stood at 7%.

With “CHIPS S56A (from UniProt A6QIG7 29-149) (other; other documents disagree on this pair)”, the pept-ELISA bindn (%) was 18% and 16%.

Regarding “CHIPS N55A (from UniProt A6QIG7 29-149) (other; other documents disagree on this pair)”, the pept-ELISA bindn (%) was 8% and 9%.

The substance “CHIPS G33A (from UniProt A6QIG7 29-149) (other; other documents disagree on this pair)” showed a pept-ELISA bindn (%) of 13%.

Regarding “CHIPS E67A (from UniProt A6QIG7 29-149) (other; other documents disagree on this pair)”, the pept-ELISA bindn (%) was 52% and 39%.

Substance “CHIPS S107A (from UniProt A6QIG7 29-149) (other; other documents disagree on this pair)” yielded a pept-ELISA bindn (%) of 11%.

For the substance “CHIPS K69A control (lysate), A6QIG7 29-140”, the Abs 492 nm was 1.41 and 1.39; the Pep. bind. is 126 ng/mL and 120 ng/mL; the Pep. bind. Log (ng/ml) is 2.1 log ng/ml and 2.08 log ng/ml; the Spec. activity pep/expr (%) is 116% and 112%. The pept-ELISA bindn (%) was found to be 15%.

In the case of “CHIPS Q58A (from UniProt A6QIG7 29-149) (other; other documents disagree on this pair)”, the pept-ELISA bindn (%) is 2% and 3%.

In the case of “CHIPS P35A (from UniProt A6QIG7 29-149) (other; other documents disagree on this pair)”, the pept-ELISA bindn (%) was 54% and 68%.

Consider “CHIPSwt control (lysate) (from UniProt A6QIG7 29-149) (other; other documents disagree on this pair)”, for which the Abs 492 nm is 1.48 and 1.41; the Pep. bind. was 155 ng/mL and 126 ng/mL; the Pep. bind. Log (ng/ml) is 2.19 log ng/ml and 2.1 log ng/ml; the Spec. activity pep/expr (%) was 119% and 106%. For the same substance, the pept-ELISA bindn (%) was 21%.

Consider “CHIPS N31A (from UniProt A6QIG7 29-149) (other; other documents disagree on this pair)”, for which the pept-ELISA bindn (%) was 16% and 23%.

Another assay has the same target. The assay is described as follows: C5aR peptide ELISA. On the technique in general: In an ELISA, binding on a coated surface is turned into a signal by an enzyme label.
Consider “CHIPS clone 7B3 (N111I) (from UniProt A6QIG7 29-140) (other; other documents disagree on this pair)”, for which the specific activity (%) was determined as 140%.

Consider “CHIPS clone 3C4 (K69A, G112V), A6QIG7 29-139”, for which the specific activity (%) came out at 94%.

Take CHIPS clone 4E5 (K69T), A6QIG7 29-140: the specific activity (%) was 76%.

Consider “CHIPS clone 2H5 (K69A, K100R, K101R), A6QIG7 29-140”, for which the specific activity (%) was 113%.

In the case of “CHIPS clone 7E4 (K40N, K92R), A6QIG7 29-140”, the specific activity (%) came out at 65%.

Regarding “CHIPS clone 1F8 (Y48H, D83G, L90P), A6QIG7 29-140”, the specific activity (%) stood at 93%.

For the substance CHIPS clone 6E1 (S104Y), A6QIG7 29-140, the specific activity (%) was 76%.

As for “CHIPS clone 3H1 (G112V) (from UniProt A6QIG7 29-139) (other; other documents disagree on this pair)”, the specific activity (%) amounted to 109%.

“CHIPS clone 2C9 (K54R, K69R, K100R, K105R), A6QIG7 29-140”: the specific activity (%) is 115%.

For the substance CHIPS clone 5H1 (K50N), A6QIG7 29-140, the specific activity (%) is 88%.

For the substance “CHIPS K69A control (lysate), A6QIG7 29-140”, the specific activity (%) stood at 116%.

In the case of “CHIPSwt control (lysate) (from UniProt A6QIG7 29-149) (other; other documents disagree on this pair)”, the specific activity (%) worked out at 106%.

Regarding “CHIPS clone 2D5 (K40E, K69A, N111K, G112V), A6QIG7 29-138”, the specific activity (%) worked out at 132%.

In a further assay the target is human C5a receptor (C5aR) (human) (UniProt P21730). The assay is described as follows: dual fMLP-F/α-C5aR-PE flow cytometry on neutrophils.
human C5a receptor (C5aR) (human), sequence (P21730 whole entry, the tested form may be a part): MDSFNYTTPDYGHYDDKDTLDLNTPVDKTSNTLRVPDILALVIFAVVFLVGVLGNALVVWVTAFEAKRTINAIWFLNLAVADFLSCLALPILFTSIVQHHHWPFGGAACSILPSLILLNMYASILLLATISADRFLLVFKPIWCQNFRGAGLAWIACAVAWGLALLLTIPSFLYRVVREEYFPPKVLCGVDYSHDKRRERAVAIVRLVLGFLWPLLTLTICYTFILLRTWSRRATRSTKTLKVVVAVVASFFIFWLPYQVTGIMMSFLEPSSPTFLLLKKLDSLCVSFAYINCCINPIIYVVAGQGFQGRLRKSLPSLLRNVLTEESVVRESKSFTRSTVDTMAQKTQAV
As for “Chemotaxis Inhibitory Protein of Staphylococcus aureus (CHIPS), wildtype, amino acids 1-121 (from UniProt A6QIG7 29-149)”, the Dual bind PMN (%) came to 112%.

For another assay the target is unchanged.
Assay: not given
In the case of “Chemotaxis Inhibitory Protein of Staphylococcus aureus (CHIPS), wildtype, amino acids 1-121 (from UniProt A6QIG7 29-149)”, the IC50 (read off the curve) worked out at 0.07 ng/mL.

A further assay has the same target. The assay can be described thus: flow cytometry on U937/C5aR cells, 2H7 detection. (In general: A flow cytometer gives signals particle by particle.)
Regarding “Chemotaxis Inhibitory Protein of Staphylococcus aureus (CHIPS), wildtype, amino acids 1-121 (from UniProt A6QIG7 29-149)”, the Binding U937cells C5aR (0.3 µg/ml) % of wt 1-112 amounted to 28%.
